Our source for the stoichiometry N values is PMC3169405.

The target of the assay is Bartonella henselae Nudix hydrolase BH02020 (Bh-MutT) (Bartonella henselae strain Houston-1). Nature of the assay: SEC; Superdex75 size-exclusion column, retention time 68 min; 21-residue N-terminal tag present.

What is called stoichiometry N is the number of molecules, sites or subunits per partner or assembly.

In turn, “Bartonella henselae Nudix hydrolase BH02020 (Bh-MutT) (enzyme)” showed a stoichiometry N of 2.
